Laboratory results as given in US20190284299A1.

Tests used:
[1] = target: CD3 on Jurkat cells (Homo sapiens (Human)) (UniProt P07766); assay: flow cytometry on Jurkat cells, 5 nM, anti-human IgG-FITC
[2] = target: HER2 on SK-BR-3 cells (UniProt P04626); assay: flow cytometry on SK-BR-3 cells, 0.5 nM, anti-human IgG-FITC
[3] = target: CD3 on Jurkat cells (Homo sapiens (Human)) (UniProt P07766); assay: flow cytometry on Jurkat cells, as in Example 8
[4] = target: CD3 on Jurkat cells (Homo sapiens (Human)) (UniProt P07766); assay: flow cytometry on Jurkat cells, as in Example 8; remark: listed apart in the source
[5] = target: CD20 on Raji cells (UniProt P11836); assay: flow cytometry on Raji cells, as in Example 8
[6] = target: CD3 on Jurkat cells (Homo sapiens (Human)) (UniProt P07766); assay: flow cytometry on Jurkat cells, as in Example 8; remark: listed apart in the source

Sequence of CD3 on Jurkat cells (Homo sapiens (Human)) (P07766 23-207 limits assumed, form in doubt, chain 1 of 3): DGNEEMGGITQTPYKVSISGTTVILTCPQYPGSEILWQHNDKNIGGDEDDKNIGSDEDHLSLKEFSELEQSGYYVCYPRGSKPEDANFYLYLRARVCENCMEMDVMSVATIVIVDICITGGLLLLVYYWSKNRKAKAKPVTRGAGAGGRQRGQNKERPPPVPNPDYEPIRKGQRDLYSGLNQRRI
Sequence of CD3 on Jurkat cells (Homo sapiens (Human)) (delta, as listed by the source limits assumed, form in doubt, chain 2 of 3): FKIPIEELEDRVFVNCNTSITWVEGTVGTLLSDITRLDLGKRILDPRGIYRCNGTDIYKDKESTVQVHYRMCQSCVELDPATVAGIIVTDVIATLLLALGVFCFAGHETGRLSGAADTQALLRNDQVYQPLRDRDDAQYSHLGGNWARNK
Sequence of CD3 on Jurkat cells (Homo sapiens (Human)) (gamma, as listed by the source limits assumed, form in doubt, chain 3 of 3): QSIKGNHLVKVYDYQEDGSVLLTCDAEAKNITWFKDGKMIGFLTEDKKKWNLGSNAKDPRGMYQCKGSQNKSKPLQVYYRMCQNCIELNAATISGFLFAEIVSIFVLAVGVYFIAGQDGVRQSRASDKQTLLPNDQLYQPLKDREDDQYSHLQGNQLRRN
Sequence of CD20 on Raji cells (P11836 whole entry): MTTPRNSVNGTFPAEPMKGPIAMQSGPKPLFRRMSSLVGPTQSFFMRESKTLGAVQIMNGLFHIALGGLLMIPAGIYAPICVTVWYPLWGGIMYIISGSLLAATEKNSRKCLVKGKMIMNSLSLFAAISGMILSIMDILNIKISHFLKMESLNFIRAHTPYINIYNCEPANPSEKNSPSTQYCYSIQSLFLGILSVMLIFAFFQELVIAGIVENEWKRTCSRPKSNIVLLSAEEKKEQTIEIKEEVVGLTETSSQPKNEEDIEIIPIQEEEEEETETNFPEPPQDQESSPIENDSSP

Which results are given for “isotype control (human immunoglobulin, Jiangxi Boya Bio-pharmaceutical, Approval No.S19993012) (antibody)”?
MFI [1]: 3.16; Mean Fluorescence Intensity (MFI) [2]: 2.88; MFI [3]: 2.7; MFI [4]: 2.75; MFI [5]: 2.77; MFI [6]: 3.34
